Reference: the nanobody polyreactivity screen of Harvey et al. (2022)

experiment: yeast display, Sf9 membrane polyspecificity reagent, FACS + sequencing; frameworks hold sequencing errors
In short: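 Nanobodies came from a synthetic yeast display library in Saccharomyces cerevisiae BJ5465, induced with galactose for 36–48 hours and stained for 1 hour at 4 °C with 10% biotinylated, detergent-solubilized Sf9 membrane reagent. Cells were enriched on streptavidin microbeads and then FACS-sorted, with low and high (top ~1%) gates set on anti-HA fluorescence for expression and streptavidin fluorescence for reagent binding. Each polyreactivity label reflects the gate a clone came from. Genes were amplified by colony PCR, sequenced by MiSeq 2 × 250 and filtered by CDR length.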

Question: With “QVQQQESGGGLVQAGGSLRRSCAASGSIFSHWAMGWYRQTPGKERELVASITAGGNNNYADSVKGRFTISRDNAKNTVYLPMNSLKPEDTAVYYCNRRYPGPDSFEHYYYYRYDYWGQGTQVTVSS” as the sequence, how does the “polyreactivity (PSR sort gate)” value read?
Answer: low polyreactivity

Question: With “QVQQQQSGGGLVQAGGSLSLSCAASGTIFQLTVMGRYRQAPGKERELVASIDYGGNTNYADSVKGRFTISRDNAKNTVYLQMNSLKPEDTEVYYCAASSDTWTTHPFWGQGTQVTVSS” as the sequence, how does the “polyreactivity (PSR sort gate)” value read?
Answer: low polyreactivity

Question: For “QVQQQVSGGGLVQAGGSLRLSCAASGYIFQNVPMGWNRQAPGKERDLVAGIDNGTSTNYADSVNGRFTISRDNAKNTVYLQMNSLKPEVTAVYYCAAAGQADDTLGYWGQGTLVTVSS”, which “polyreactivity (PSR sort gate)” value is on record?
Answer: low polyreactivity

Question: For “QVQREESGGGLVQAGGRLRLTCAASGSIFGYYVMGWYRQAPGKERELVAAITRSGSTYYADSVKGRFTISRDNAKNTVYLQMNSLKPEDTAVYYCYADVYWPGTPYTHDYWGQGTQVTVSS”, which “polyreactivity (PSR sort gate)” value is on record?
Answer: low polyreactivity

Question: For “QVQRVDSGGGLVQAGGSLRLICAASGFTFKYYAMGWYRQAPGKERELVAAITRGGDTYYADSVMGRFTISRDNAKNTVYLQMNRLKPEETAVYYCNTASDKRAFDYWGQGTQLTVSS”, which “polyreactivity (PSR sort gate)” value is on record?
Answer: low polyreactivity

Question: For “QVQRVDSGGGLVQAGGSLRLSCAASGITLLRYTMGWYRQAPGKERELLASITKRGGSTYYADSVKGRFTISRDNAKNTVYLQMNSLKPEDTAVYYCNADRHNSYYRKWDQLDMDYWGQGTQVTVSS”, which “polyreactivity (PSR sort gate)” value is on record?
Answer: high polyreactivity

Question: Which “polyreactivity (PSR sort gate)” value does the source give for “QVQRVESAGGLVQARGSLRLSSAASGRIFKAYAMGCYRQAPGKERELVAAISRSGGNTYYADSVKGRFTISRDNAKYTVYLQLNSLKPEETAVYYCAARRFWGSDYDYWGQGTQVTVSS” here?
Answer: high polyreactivity

Question: For “QVQRVESAGRLVQAGGSLRLSCAPSGRTFPGNDMGWYRQAPGKESEFVAAISSDDSTYYADSVKGRFTISRDNAKNTVYLQMNSLKPEDTGVYYSNAEYFEGYIGVPGSYWPYEYWGQGNQVTVSS”, which “polyreactivity (PSR sort gate)” value is on record?
Answer: low polyreactivity

Question: With “QVQRVESEGGLVQAGGSLRLSCAASGRTFENYAMGWYRQAPGKERELVATINGRSGNTYYADSVKGRFTISRDNAKNTVYLQLNSLKPDDTAVYYCNAYYEGDYTVGYDYWGQGTQVTVSS” as the sequence, how does the “polyreactivity (PSR sort gate)” value read?
Answer: high polyreactivity

Question: With “QVQRVESGGCLVQAGGSLRLSCAASGRTFSYYTMGWYRQAPGKEREFVATINTSGGSTYYADSVKGRFTISRDNAKNTVYLQMNSLKPEDTAVYYCAADVYSFLSISYQWYRMDYWGQGTQVTVSS” as the sequence, how does the “polyreactivity (PSR sort gate)” value read?
Answer: low polyreactivity

Question: With “QVQRVESGGGLDQARGSLRLSCAASGITLDRYDMGWYRQAPGKERELVAAISRSGVRTYYADSVKGRFTISRDNAKNTVYLQRNSLKPEDPAVYYCNKGYARRYASGYDYWGQGTQVTVSS” as the sequence, how does the “polyreactivity (PSR sort gate)” value read?
Answer: high polyreactivity

Question: Which “polyreactivity (PSR sort gate)” value does the source give for “QVQRVESGGGLFQAGGRLRLSCAASGLIFPWYARGWYRQAPGKERELVAAISVRGGSTYYADSVKGRFTISRDNAKNTVYLQMNSLKPEDTAVYYCAASKRRASYRYYYWGQGTQVTVSS” here?
Answer: high polyreactivity

Question: For “QVQRVESGGGLFQAGGRLRLSCAATGSIFTPNAMGWYRQAPGKERELVAAISSSSDRTYYADSVKGRFTISRDKAKNTVYLQMNSLKPEDTAVYYCAAYAQKRYYWGQGTQVTVSS”, which “polyreactivity (PSR sort gate)” value is on record?
Answer: high polyreactivity

Question: With “QVQRVESGGGLGLAGGSLRLSCAASGITFVLYALGGYRQAPGKERALVASITWDATDTYYADSVKGRFTISRDNAKNTEYIPMNSLKPDDTAVSYCNAAYYNYWWLEYDYWGQGTQVTVSS” as the sequence, how does the “polyreactivity (PSR sort gate)” value read?
Answer: high polyreactivity

Question: Which “polyreactivity (PSR sort gate)” value does the source give for “QVQRVESGGGLVQAGCSLRLSCAASGLIFTRYDMGWNRPAPGKERELVAAISGDGGSTYYAESVKGRFTISRDNAKNTVYLQMNSLKPEDTAVYYCAADSARTPWDDYWGQGTQVTVSS” here?
Answer: high polyreactivity

Question: For “QVQRVESGGGLVQAGGRLRLSCAASGFIFSYNAMGWYRQAPGKERELVAAISWSGVSTYYADSVMGRFTISRDNAKNTVYLQMNSLKPEDTAVYYCSAVRLRYATPVQFNPYIFGYWGQGTQVTVSS”, which “polyreactivity (PSR sort gate)” value is on record?
Answer: high polyreactivity

Question: Which “polyreactivity (PSR sort gate)” value does the source give for “QVQRVESGGGLVQAGGSHRLSCAASGRIFSLNAMGWYRQAPGKERELVAAITTTGGTTYYADSVKGRFTISRDKAKNTVYLQMNSLKPEDTAVYYCAADYAPYNYLAYYFSGWLEYWGQGTQVTVSS” here?
Answer: low polyreactivity

Question: For “QVQRVESGGGLVQAGGSLRLRCAASGFTLGHYAMGWYRQAPGTERELVAVITSGSSTNYADSVKGRFTISRDNAKNTVYLQMNSLKPEDTAVIYCAAEHPYFIWLYYYWGQGTQVTVSS”, which “polyreactivity (PSR sort gate)” value is on record?
Answer: low polyreactivity

Question: For “QVQRVESGGGLVQAGGSLRLSCAACGSILPQYTMVWYRQAPGKERELVAAISKRGDRTYYADSVKGRFTISRDNAKNTVYLQMNSLKPEDTAVYYCAALGTGTGARSRYSVRFDYWGQGTQVTVSS”, which “polyreactivity (PSR sort gate)” value is on record?
Answer: high polyreactivity

Question: For “QVQRVESGGGLVQAGGSLRLSCAASGLIFGGYAMGWYRQAPGKERELVAAITSGGSTKYADSVKGRFTISRDNAKNTVYLQMNSLKPEDTAVYYCAASGWRNWWSARNYYWGQGTQVTVSS”, which “polyreactivity (PSR sort gate)” value is on record?
Answer: low polyreactivity

Question: Which “polyreactivity (PSR sort gate)” value does the source give for “QVQRVESGGGLVQAGGSLRLSCAASGLTFRRYGMGWYRQAPGKEREWVASISSRGGNTYYADSVKGRLTISRDKAKNTVYLQMNSRKPEETAVYYCAARHVLYGYYLYDYWGQGTQVTVSS” here?
Answer: high polyreactivity

Question: For “QVQRVESGGGLVQAGGSLRLSCAASGNTFTVNAMGWYRQAPGKERELVAAINYSGGSTYYADSVKGRFTISRDNAKNTVYLQKNSLKPEDTAVYYCAASPDELLYEMYYWGQGTQVTVSS”, which “polyreactivity (PSR sort gate)” value is on record?
Answer: low polyreactivity

Question: With “QVQRVESGGGLVQAGGSLRLSCAASGRIFGKYAMGWYRQAPGKERELVAAIDGSGSTNYADSVKGRFTISRDNAKNTVYLLMNSLKPEDTAVYYCATDHAQKFRYRSPREYWGQGTQVTVSS” as the sequence, how does the “polyreactivity (PSR sort gate)” value read?
Answer: low polyreactivity

Question: For “QVQRVESGGGLVQAGGSLRLSCAASGRIFQVYAMGWSRPAPGKERELVAAITWSGGSSYADSVKGRFTISRDNAKNTVFLQMNSLKPEDTAVYYCAAPFYYYGVRFDYRGQGTQVTVSS”, which “polyreactivity (PSR sort gate)” value is on record?
Answer: high polyreactivity

Question: With “QVQRVESGGGLVQAGGSLRLSCAASGRIFSANAMGWYRQAPGKERELVATISTGGGRTYYADSVKGRFTISRDNAKNTVYLQMNSLKPEDTAVYYCNATRNYARVRYYYWGQGTQVTVSS” as the sequence, how does the “polyreactivity (PSR sort gate)” value read?
Answer: high polyreactivity

Question: For “QVQRVESGGGLVQAGGSLRLSCAASGRIFSLNAMGWYRQAPGKEREFVAAISTSSGTTYYADSVKGRFTISRDNAKNTVYLQMNSLKPEDTAVYYCAAKRPSRYYPYRWGFDYWGQGTQVTVSS”, which “polyreactivity (PSR sort gate)” value is on record?
Answer: high polyreactivity

Question: Which “polyreactivity (PSR sort gate)” value does the source give for “QVQRVESGGGLVQAGGSLRLSCAASGRTFPWNVMGWYRQAPGKERELVAAISWSSGRTYYADSVKGRFTISRDNAKNTVYLQMNSLKPEDTAVYYCAAVYKVHSGLYEYWGQGTQVTVSS” here?
Answer: high polyreactivity

Question: For “QVQRVESGGGLVQAGGSLRLSCAASGRTFWRNAMGWYRQAPGKERELVARISWSGGSTYYADSVKGRFTISRDNAKNTVYLQMNSLKPEDTAVYYCAKYYPGRSAFSDGNYWVQGTQVTVSS”, which “polyreactivity (PSR sort gate)” value is on record?
Answer: low polyreactivity

Question: Which “polyreactivity (PSR sort gate)” value does the source give for “QVQRVESGGGLVQAGGSLRLSCAASGRTVGYYAMGWYRQAPGKERELLAAITRTGGSTHYADSVKGRFTISRANAKNTVYIQMNSLKPEDTAVYYCARDYRYTIPYDYWGQGTQVTVSS” here?
Answer: low polyreactivity

Question: With “QVQRVESGGGLVQAGGSLRLSCAASGSIFPRYAMGWYRQAPGKEREMVATISSGGSTYYADSVKGRFTISRDNAKNTVYLQMNSLKPEHTAVYYCAARKRPYTVINGMDYWGQGTQVTVSS” as the sequence, how does the “polyreactivity (PSR sort gate)” value read?
Answer: low polyreactivity

Question: Which “polyreactivity (PSR sort gate)” value does the source give for “QVQRVESGGGLVQAGGSLRLSCAASGSIFSVYAMGWYRQAPGKERELVAAITSSGGSTYYADSVKGRFTISRDNAKNTVNFQMKSLKPEDTAVYYCAADKYLRRRSWYRYGYWGQGTQVTVSS” here?
Answer: high polyreactivity
